{
  "source": "patent US20150023971A1",
  "about": "(H LUNDBECK A S, published 2015)",
  "binders": {"B1": {"name": "Mature recombinant human BDNF (Promega #G1491) (ligand)", "chain": "HSDPARRGELSVCDSISEWVTAADKKTAVDMSGGTVTVLEKVPVSKGQLKQYFYETKCNPMGYTKEGCRGIDKRHWNSQCRTTQSYVRALTMDSKKRIGWRFIRIDTSCVCTLTIKRGR", "notes": "Bought protein; also called mature BDNF"}, "B2": {"name": "Mature murine NGF (Austral Biologicals) (ligand, mouse, UniProt P01139 122-241, looked up)", "chain": "SSTHPVFHMGEFSVCDSVSVWVGDKTTATDIKGKEVTVLAEVNINNSVFRQYFFETKCRASNPVESGCRGIDSKHWNSYCTTTHTFVKALTTDEKQAAWRFIRIDTACVCVLSRKATRRG", "notes": "mature; Bought protein"}, "B3": {"name": "recombinant human p75 neurotrophin receptor/Fc chimera (R&D systems) (Fc fusion, UniProt P08138 29-250, looked up)", "chain": "KEACPTGLYTHSGECCKACNLGEGVAQPCGANQTVCEPCLDSVTFSDVVSATEPCKPCTECVGLQSMSAPCVEADDAVCRCAYGYYQDETTGRCEACRVCEAGSGLVFSCQDKQNTVCEECPDGTYSDEANHVDPCLPCTVCEDTERQLRECTRWADAECEEIPGRWITRSTPPEGSDSTAPSTQEPEAPPEQDLIASTVAGVVTTVMGSSQPVVTRGTTDN", "notes": "Bought from R&D systems; also called p75-IgG-Fc chimeric protein; p75^NTR; not shown: IgG Fc part of the bought chimera"}},
  "key": {"[1]": {"molecular_target": "T1, purified human Sortilin extracellular domain (produced in stably transfected CHO cells) (human, UniProt Q99523 78-755)", "T1 construct": "also called immobilized Sortilin", "T1 sequence": "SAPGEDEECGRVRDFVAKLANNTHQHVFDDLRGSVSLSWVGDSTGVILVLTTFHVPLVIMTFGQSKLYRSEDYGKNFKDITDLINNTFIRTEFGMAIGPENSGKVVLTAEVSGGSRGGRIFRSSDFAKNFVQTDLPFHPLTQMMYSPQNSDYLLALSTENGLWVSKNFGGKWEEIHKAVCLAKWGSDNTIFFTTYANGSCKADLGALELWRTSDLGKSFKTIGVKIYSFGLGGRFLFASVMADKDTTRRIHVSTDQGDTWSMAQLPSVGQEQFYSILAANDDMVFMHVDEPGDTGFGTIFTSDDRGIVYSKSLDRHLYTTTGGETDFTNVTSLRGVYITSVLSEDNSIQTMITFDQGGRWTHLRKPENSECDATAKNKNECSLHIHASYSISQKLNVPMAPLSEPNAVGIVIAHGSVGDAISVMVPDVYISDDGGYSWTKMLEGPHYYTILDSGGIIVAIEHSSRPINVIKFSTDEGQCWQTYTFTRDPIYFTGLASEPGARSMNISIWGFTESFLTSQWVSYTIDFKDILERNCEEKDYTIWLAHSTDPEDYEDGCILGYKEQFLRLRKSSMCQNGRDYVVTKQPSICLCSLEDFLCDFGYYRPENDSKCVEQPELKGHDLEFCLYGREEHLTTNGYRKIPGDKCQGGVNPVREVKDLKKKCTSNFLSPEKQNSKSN", "assay": "SPR (Biacore), immobilised Sortilin extracellular domain; other preparations of mature BDNF"}, "[2]": {"molecular_target": "T1, purified human Sortilin extracellular …", "assay": "SPR (Biacore), immobilised Sortilin extracellular domain (94 fmol/mm2); mature BDNF from Promega (#G1491), lower panel of FIG. 7"}, "[3]": {"molecular_target": "T1, purified human Sortilin extracellular …", "assay": "SPR (Biacore), NGF at 200 and 500 nM over immobilised Sortilin extracellular domain; the text gives ~8 nM for this pair"}, "[4]": {"molecular_target": "T2, recombinant human TrkA/Fc chimera (R&D systems) (human, UniProt P04629-2 33-407)", "T2 construct": "Bought from R&D systems; also called TrkA-IgG-Fc; not shown: IgG Fc part of the bought chimera", "T2 sequence (P04629 other isoform, or with tags, fused parts or gaps mutant)": "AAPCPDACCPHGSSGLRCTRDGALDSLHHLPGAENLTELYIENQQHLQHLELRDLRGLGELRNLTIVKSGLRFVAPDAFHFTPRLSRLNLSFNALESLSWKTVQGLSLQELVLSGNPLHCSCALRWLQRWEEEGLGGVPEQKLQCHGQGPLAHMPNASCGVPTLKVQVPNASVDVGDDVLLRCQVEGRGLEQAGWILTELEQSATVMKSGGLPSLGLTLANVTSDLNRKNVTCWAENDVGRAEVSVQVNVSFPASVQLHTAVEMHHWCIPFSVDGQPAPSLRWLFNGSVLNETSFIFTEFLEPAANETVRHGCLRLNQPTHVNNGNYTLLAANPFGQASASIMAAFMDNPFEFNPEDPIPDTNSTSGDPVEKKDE", "assay": "SPR (Biacore), 50-500 nM NGF over immobilised TrkA-IgG-Fc"}, "[5]": {"molecular_target": "B3", "assay": "SPR (Biacore), 50-500 nM NGF over immobilised p75-IgG-Fc"}, "[6]": {"molecular_target": "T1, purified human Sortilin extracellular …", "assay": "SPR (Biacore), 50-500 nM NGF over immobilised Sortilin extracellular domain"}, "[7]": {"molecular_target": "T3, Human recombinant proNGF (produced and purified in E. coli) (human, UniProt P01138 19-241)", "T3 construct": "Made as in Rattenholl et al 2001", "T3 sequence (P01138 other isoform, or with tags, fused parts or gaps limits assumed)": "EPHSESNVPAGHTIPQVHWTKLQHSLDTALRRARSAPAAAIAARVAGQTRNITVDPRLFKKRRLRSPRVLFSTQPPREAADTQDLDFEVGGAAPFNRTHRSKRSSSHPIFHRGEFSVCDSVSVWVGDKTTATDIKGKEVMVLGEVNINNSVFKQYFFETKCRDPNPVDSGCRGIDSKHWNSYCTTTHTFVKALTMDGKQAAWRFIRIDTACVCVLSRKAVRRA", "assay": "SPR (Biacore), 25-500 nM proNGF over immobilised p75-IgG-Fc"}},
  "data": [
    {"binder": "B1", "values": [
      {"measurement": "Kd", "setting": "[1]", "result": 10, "unit": "nM"},
      {"measurement": "Kd", "setting": "[2]", "result": "~40", "unit": "nM"}
    ]},
    {"binder": "B2", "values": [
      {"measurement": "Kd", "setting": "[3]", "result": "~87", "unit": "nM"},
      {"measurement": "Kd", "setting": "[4]", "result": "~2", "unit": "nM"},
      {"measurement": "Kd", "setting": "[5]", "result": "~1", "unit": "nM"},
      {"measurement": "Kd", "setting": "[6]", "result": "~8", "unit": "nM"}
    ]},
    {"binder": "B3", "values": [
      {"measurement": "Kd", "setting": "[7]", "result": "~12", "unit": "nM"}
    ]}
  ]
}
